For one substance, decrease of the association relative to WT BAG3 results are on record in article PMC9085972.

The assay addresses V5-HSP70 (UniProt P0DMV8). The assay can be described thus: co-IP.
UniProt P0DMV8, sequence (P0DMV8 whole entry): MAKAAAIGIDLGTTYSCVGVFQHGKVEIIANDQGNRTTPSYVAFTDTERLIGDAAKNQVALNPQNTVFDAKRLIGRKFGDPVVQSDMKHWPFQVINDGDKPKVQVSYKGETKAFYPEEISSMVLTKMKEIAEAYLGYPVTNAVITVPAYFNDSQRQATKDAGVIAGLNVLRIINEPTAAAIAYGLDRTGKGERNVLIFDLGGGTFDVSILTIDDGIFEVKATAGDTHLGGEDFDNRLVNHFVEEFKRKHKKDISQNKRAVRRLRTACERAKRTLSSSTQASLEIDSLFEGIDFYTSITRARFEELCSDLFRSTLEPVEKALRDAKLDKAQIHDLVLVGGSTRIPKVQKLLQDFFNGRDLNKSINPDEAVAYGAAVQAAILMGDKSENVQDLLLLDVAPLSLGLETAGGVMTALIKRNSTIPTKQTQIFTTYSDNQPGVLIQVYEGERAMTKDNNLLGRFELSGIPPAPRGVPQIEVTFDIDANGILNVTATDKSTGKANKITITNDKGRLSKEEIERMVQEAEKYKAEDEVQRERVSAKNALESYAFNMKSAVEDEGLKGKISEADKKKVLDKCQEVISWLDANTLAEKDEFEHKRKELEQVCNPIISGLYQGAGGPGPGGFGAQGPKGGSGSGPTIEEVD

On to “BAG3 with L462P mutation (pCDH-L462P BAG3) (from UniProt O95817 1-575) (natural protein)”, for which the decrease of the association relative to WT BAG3 is more than 50%.
